Drawing on US20070184519A1 (published 2007), this text covers IC50 for one molecule.

Holding throughout (assay): inhibition of radiolabelled probe peptide binding to purified MHC class II
For assay [1], the target named is HLA-DR molecule DRB1*1101 (DR5w11) (human).
For assay [2], the target named is HLA-DR molecule DRB1*1302 (DR6w19) (human).
The target in assay [3] is HLA-DR molecule DRB5*0101 (DR2w2a) (human).
Assay [4] deals with HLA-DR molecule DRB4*0101 (DRw53) (human).

As for GLRSLTTLLGALGAQ [EPO 101 analog peptide GLRSLTTLLGALGAQ (SEQ ID NO: 194)], the IC50 in assay [1] was found to be 2.6 nM; in assay [2] it was 858 nM; in assay [3], 294 nM; in assay [4], 13 nM.

For orientation: IC50 means the concentration at which inhibition is half-maximal. Lower therefore signals greater potency in that assay.
